Data reported in paper PMC4658667.

Target: CdiI^YPIII immunity protein from Yersinia pseudotuberculosis YPIII, His6-tagged (Yersinia pseudotuberculosis YPIII)
Assay: BLI

CdiA-CT^YPIII, C-terminal toxin domain of CdiA from Yersinia pseudotuberculosis YPIII (domain or fragment)
Kd: 16 nM
